Substitutions are numbered along the chain they refer to.
B1: reshaped human C21 antibody C21-H3/L1 (antibody, V domains shown)
VH: QVQLVQSGAEVKKPGASVKVSCKASGYTFSMYWLEWVRQAPGHGLEWVGEISPGTFTTNYNEKFKARATFTADTSTNTAYMELSSLRSEDTAVYYCARFSHFSGSNYDYFDYWGQGTLVTVSS
VL: DILLTQSPGTLSLSPGERATLSCRASQSIGTNIHWYQQKPGQAPRLLIKYASESISGIPSRFSGSGSGTDFTLTISRLEPEDFAMYYCQQSDSWPTTFGQGTKVEIK
B2: reshaped human C21 antibody C21-Hay3/L2 (antibody, V domains shown)
VH: B1 VH with H43Q, G44R, V48M, T76A, N77S
VL: B1 VL with S60D
B3: reshaped human C21 antibody C21-Hay3/L1 (antibody, V domains shown)
VH: B1 VH with H43Q, G44R, V48M, T76A, N77S
VL: B1 VL
B4: reshaped human C21 antibody C21-Hay3/L3 (antibody, V domains shown)
VH: B1 VH with H43Q, G44R, V48M, T76A, N77S
VL: B1 VL with D1E, L3V
B5: reshaped human C21 antibody C21-H3/L2 (antibody, V domains shown)
VH: B1 VH
VL: B1 VL with S60D
B6: reshaped human C21 antibody C21-H1/L3 (antibody, V domains shown)
VH: B1 VH with R38K, A40R, R67K, R87T
VL: B1 VL with D1E, L3V
notes: C21-L3 is C21-L1 with Glu instead of Asp at position 1 and Val instead of Leu at position 3
B7: reshaped human C21 antibody C21-H3/L3 (antibody, V domains shown)
VH: B1 VH
VL: B1 VL with D1E, L3V
B8: reshaped human C21 antibody C21-H1/L1 (antibody, V domains shown)
VH: B1 VH with R38K, A40R, R67K, R87T
VL: B1 VL
B9: reshaped human C21 antibody C21-H1/L2 (antibody, V domains shown)
VH: B1 VH with R38K, A40R, R67K, R87T
VL: B1 VL with S60D
notes: C21-L2 is C21-L1 with aspartic acid instead of serine at position 60

Tests used:
[1] = biological target: T1, human IgE; monoclonal antibody SE44 (human, UniProt P01854-1 1-428); assay: BIAcore SPR, Kaff from kass and kdiss
T1 construct: domain: human e constant region; also called IgE (SE44); human monoclonal IgE (SE44)

[2] = biological target: T1, human IgE; monoclonal antibody SE44; assay: BIAcore SPR, antibody captured via anti-human IgG, IgE SE44 3.125-25 nM in flow, 25°C
[3] = biological target: T1, human IgE; monoclonal antibody SE44; assay: BIAcore SPR, antibody captured via anti-human IgG, IgE SE44 25 nM, dissociation in HBS, 25°C

| Binder | Ka [1] [M⁻¹] | kon [2] [M⁻¹ s⁻¹] | koff [3] [s⁻¹] |
| --- | --- | --- | --- |
| B1 | 1.32e+10 | 250000 | 1.9e-05 |
| B2 | 8.1e+09 | 250000 | 3.1e-05 |
| B3 | 6.1e+09 | 250000 | 4.1e-05 |
| B4 | 1.6e+09 | 260000 | 0.000159 |
| B5 | 5.7e+09 | 250000 | 4.4e-05 |
| B6 | 4.7e+09 | 290000 | 6.2e-05 |
| B7 | 7.4e+09 | 260000 | 3.5e-05 |
| B8 | 8.7e+09 | 260000 | 3e-05 |
| B9 | 4.9e+09 | 280000 | 5.7e-05 |

From patent publication EP1452542A2 (Novartis AG, dated 2004)
